Data from patent publication US6863888 (University of California, dated 2005).
One block for each binder: values may come before it.

B1: c-Jun N-terminal protein kinase (JNK), 46 kD form, endogenous kinase from cell extracts (enzyme)
chain: MSRSKRDNNFYSVEIGDSTFTVLKRYQNLKPIGSGAQGIVCAAYDAILERNVAIKKLSRPFQNQTHAKRAYRELVLMKCVNHKNIIGLLNVFTPQKSLEEFQDVYIVMELMDANLCQVIQMELDHERMSYLLYQMLCGIKHLHSAGIIHRDLKPSNIVVKSDCTLKILDFGLARTAGTSFMMTPYVVTRYYRAPEVILGMGYKENVDLWSVGCIMGEMVCHKILFPGRDYIDQWNKVIEQLGTPCPEFMKKLQPTVRTYVENRPKYAGYSFEKLFPDVLFPADSEHNKLKASQARDLLSKMLVIDASKRISVDEALQHPYINVWYDPSEAEAPPPKIPDKQLDEREHTIEEWKELIYKEVMDLEERTKNGVIRGQPSPLAQVQQ
B5: epitope-tagged JNK1 (Flag epitope Asp-Tyr-Lys-Asp-Asp-Asp-Asp-Lys inserted between codons 1 and 2), expressed in COS cells (enzyme)
chain: MDYKDDDDKSRSKRDNNFYSVEIGDSTFTVLKRYQNLKPIGSGAQGIVCAAYDAILERNVAIKKLSRPFQNQTHAKRAYRELVLMKCVNHKNIIGLLNVFTPQKSLEEFQDVYIVMELMDANLCQVIQMELDHERMSYLLYQMLCGIKHLHSAGIIHRDLKPSNIVVKSDCTLKILDFGLARTAGTSFMMTPYVVTRYYRAPEVILGMGYKENVDLWSVGCIMGEMVCHKILFPGRDYIDQWNKVIEQLGTPCPEFMKKLQPTVRTYVENRPKYAGYSFEKLFPDVLFPADSEHNKLKASQARDLLSKMLVIDASKRISVDEALQHPYINVWYDPSEAEAPPPKIPDKQLDEREHTIEEWKELIYKEVMDLEERTKNGVIRGQPSPLAQVQQ
notes: Tag inserted between codons 1 and 2 of the JNK1 cDNA in pCMV5; also called immunopurified JNK1

Key:
[1] = target: GAL4-cJun(1-223), GAL4 DNA binding domain fused to c-Jun AA 1-223 (yeast; human, UniProt P04386 1-147); experiment: cell-based or functional assay
[2] = target: B5; experiment: immunopurified JNK1 on GST-Jun fusion proteins bound to GSH-agarose, solid-phase kinase assay
Method: (§1) Clarified cell extracts were incubated with GST fusion proteins immobilized on GSH-agarose beads. […] The reaction was terminated after 10 mins at 30° C. and the products were resolved by SDS-PAGE. The incorporation of [^32P]phosphate was visualized by autoradiography and quantitated with a phosphorimager and ImageQuant software (Molecular Dynamics Inc., Sunnyvale, Calif.).
(§2) Mock-transfected COS cells were used as a control. After 1 hour, the cells were lysed and subjected to immunoprecipitation with the M2 monoclonal antibody. […] The phosphorylated proteins were resolved by SDS-PAGE and detected by autoradiography.

[3] = target: B1; experiment: GSTcJun deletion mutants on GSH-agarose, UV-irradiated HeLa extract; solid-phase kinase assay and eluted-kinase assay
[4] = target: B5; experiment: COS cell lysates on GST-cJun(1-79) immobilized on GSH-agarose beads, Western blot with M2 antibody
Method: COS cell extracts (250 µg) were incubated with 20 µg GST or GST-cJun immobilized on 10 µl GSH-agarose at 4° C. for 5 hours.
Mock-transfected COS cells were used in control experiments (lanes 1 & 2). The cells were either untreated (lanes 1 & 3) or irradiated with 40 J/m^2 UV-C (lanes 2, 4, & 5). Cell lysates were prepared and incubated with GST-cJun(1-79) (lanes 1–4) or GST (lane 5) immobilized on GSH-agarose beads.

[5] = target: T1, GSTcJun(wt), glutathione-S-transferase fused to c-Jun AA 1-223 (human, UniProt P08515 1-218 = GST); experiment: immunopurified JNK1 on GST-Jun fusion proteins bound to GSH-agarose, solid-phase kinase assay
T1 construct: Expressed in E. coli, held on GSH-agarose beads; also called human GSTcJun
Method: as §1, §2

Binder: B1
Ha-Ras responsiveness, CAT activity of 5xGAL4-Elb-CAT reporter in F9 cells [1]: 19 fold induction
UV responsiveness, CAT activity of 5xGAL4-Elb-CAT reporter in F9 cells [1]: 7.5 fold

B3: GST-cJun(1-79), GST fused to c-Jun AA 1-79 (other)
chain: MTAKMETTFYDDALNASFLPSESGPYGYSNPKILKQSMTLNLADPVGSLKPHLRAKNSDLLTSPDVGLLKLASPELERL
notes: also called GST fusion protein containing AA 1-79 of c-Jun; not shown: glutathione-S-transferase (GST) carrier encoded by pGEX3X (Pharmacia)
binding result [4]: binds

Binder: B5
binding result [5]: binds

Continued, values first:

binding result [2]: no binding
binding result [3]: no binding
B2: GST-cJun(43-223), GST fused to c-Jun AA 43-223 (other)
chain: ADPVGSLKPHLRAKNSDLLTSPDVGLLKLASPELERLIIQSSNGHITTTPTPTQFLCPKNVTDEQEGFAEGFVRALAELHSQNTLPSVTSAAQPVNGAGMVAPAVASVAGGSGSGGFSASLHSEPPVYANLSNFNPGALSSGGGAPSYGAAGLAFPAQPQQQQQPPHHLPQQMPVQHPRLQ
notes: also called removal of AA 1-42; deletion of residues 1-42; not shown: GST carrier (pGEX3X, Pharmacia) and the vector junction residues

binding result [2]: binds
B4: GSTcJun(33-223), GST fused to c-Jun AA 33-223 (other)
chain: ILKQSMTLNLADPVGSLKPHLRAKNSDLLTSPDVGLLKLASPELERLIIQSSNGHITTTPTPTQFLCPKNVTDEQEGFAEGFVRALAELHSQNTLPSVTSAAQPVNGAGMVAPAVASVAGGSGSGGFSASLHSEPPVYANLSNFNPGALSSGGGAPSYGAAGLAFPAQPQQQQQPPHHLPQQMPVQHPRLQ
notes: also called removal of AA 1-32; not shown: GST carrier (pGEX3X, Pharmacia) and the vector junction residues
